Laboratory results published in patent US20250304628A1.

Experiments:
[1] = biological target: IgG; assay: dynamic binding capacity at 10% breakthrough; ligand coupled to agarose medium; after 24 h of 1 M NaOH treatment (2 h cycles)
[2] = biological target: IgG; assay: dynamic binding capacity at 10% breakthrough; ligand coupled to agarose medium, IgG 1 mg/ml loaded, before alkali treatment
[3] = biological target: IgG; assay: SPR, Biacore 4000; IgG immobilised on CM5 chip, mutant as analyte
[4] = biological target: IgG; assay: dynamic binding capacity at 10% breakthrough; ligand coupled to agarose medium; after 24 h of 1 M NaOH treatment, relative to initial capacity

| Remaining IgG capacity after 24 hours (dynamic binding capacity at 10% breakthrough) [1] [mg/mL] | Initial IgG capability (dynamic binding capacity at 10% breakthrough) [2] [mg/mL] | Kd [3] [nM] | Remaining IgG capacity after 24 hours (% of initial) [4] [%] | Substance |
| --- | --- | --- | --- | --- |
| 21.6 | 145 | 1.13 | 14.9 | Z(E15D)4 (designed binder) |
| 35.5 | 155 | 3.99 | 22.8 | Z(E15F)4 (designed binder) |
| 33 | 187 | 2.55 | 17.7 | Z(E15I)4 (designed binder) |
| 63 | 157 | 1.25 | 40.1 | Z(E15L)4 (designed binder) |
| 72 | 165 | 1.78 | 43.6 | Z(E15S)4 (designed binder) |
| 45.5 | 176 | 4.71 | 25.9 | Z(E15T)4 (designed binder) |
| 33.2 | 133 | 2.66 | 24.9 | Z(E15V)4 (designed binder) |
| 38.1 | 165 | 1.54 | 23.2 | Z(E15W)4 (designed binder) |
| 48.6 | 174 | 2.92 | 28 | Z(E15Y)4 (designed binder) |
| 65 | 148 |  | 44 | Z(N3L, N6E, Q9F, E15L, N23I)4 (designed binder) |
| 57.2 | 161 | 2.57 | 35.4 | Z(N3L, N6E, Q9I, E15I, N23I)4 (designed binder) |
| 87.8 | 149 |  | 58.8 | Z(N3L, N6E, Q9I, E15I, N23I)6 (designed binder) |
| 68.4 | 151 |  | 45.2 | Z(N3L, N6L, Q9F, E15I, N23V)4 (designed binder) |
| 112 | 175 |  | 63.9 | Z(N3L, N6L, Q9F, E15I, N23V)6 (designed binder) |
| 70.2 | 179 | 2.09 | 39.2 | Z(N3L, N6L, Q9I, E15L)4 (designed binder) |
| 45.3 | 159 | 2.33 | 28.5 | Z(N3L, N6L, Q9I, E15L, N23V)4 (designed binder) |
| 42.1 | 166 | 4.41 | 25.4 | Z(N3L, Q9I, E15L, N23V)4 (designed binder) |
| 110 | 177 | 2.72 | 62.2 | Z(N3V, N6E, Q9I, E15L)4 (designed binder) |
| 67.9 | 169 | 2.76 | 40.1 | Z(N3V, N6L, Q9F, E15V, N23Y)4 (designed binder) |
| 103 | 190 |  | 54.2 | Z(N3V, N6L, Q9I, E15V, N23Y)6 (designed binder) |
| 68.2 | 186 | 3.98 | 36.7 | Z(N6L, Q9F, E15I, N23V)4 (designed binder) |
| 37.2 | 182 | 1.74 | 20.4 | Z(Q9F)4 (designed binder) |
| 39.6 | 143 |  | 27.6 | Z(Q9I)4 (designed binder) |
| 42.6 | 136 | 2.46 | 31.5 | Z(Q9M)4 (designed binder) |
